Among the data in article PMC10960872 are percent of parent and other: ΔpEC50 values, retold here.

The target in assay [1] is NanoBiT Gq: Gαq–LgBiT (wild type) co-expressed with Gβ1 and Gγ2, P50148;P62873;P59768. Briefly: NanoBiT assay (M3-SmBiT with Gαq–LgBiT, Gβ1, Gγ2), basal. The following applies: absence of agonist; parent: est. 78 (WT 1:4, expression-matched; WT 1:1 = 100); read off a plot.
The target is the same in assay [2]. Briefly: NanoBiT assay (M3-SmBiT with Gαq–LgBiT, Gβ1, Gγ2), ACh titration. The note with it: titrated concentrations of acetylcholine; parent: est. -0.1 (WT 1:4, expression-matched; WT 1:1 = 0); read off a plot.

Take “ssHA-FLAG-M3-SmBiT (wild type), P20309 M3-6A (C-tail KKKRRK to AAAAAA)”: the percent of parent in assay [1] is 46 %RLU. Moreover, the other: ΔpEC50 in assay [2] was -0.2.

On to “ssHA-FLAG-M3-SmBiT (wild type), P20309 M3-GS (C-tail KKKRRK to GSGSGS)”, for which, in assay [1], the percent of parent amounted to 50 %RLU. The other: ΔpEC50 in assay [2] is -0.3.
